Data as given in patent US20110287023A1 (AstraZeneca / MedImmune, published 2011).

Assays:
[1] = molecular target: T1, recombinant HMG1 produced in E. coli as a calmodulin binding protein (CBP) fusion (human); experiment: BIAcore 3000, mAb amine-coupled to CM5, HMG1 injected, steady-state model
T1 construct: also called rHMG1; rHMGB1
Procedure: HMG1 Binding Affinity via BIAcore Analysis: All experiments were performed on a BIAcore 3000 instrument (BIAcore, Inc., Piscataway, N.J.). Briefly, each mAb was immobilized to a CM5 sensor chip using a standard amine coupling chemistry. Separately a reference (control) flow cell was also prepared. Two-fold, serial dilutions of HMG1 in instrument buffer were sequentially injected at a slow flow rate over the individual mAb and reference flow-cell surfaces. Following the binding and dissociation of HMG1, the mAbs surfaces were regenerated with a brief pulse of 1M NaCl-50 mM NaOH. At the end of each experiment, the binding curves were evaluated using a steady-state model available through the BIAevaluation software supplied by BIAcore, Inc. (Piscataway, N.J.).

[2] = molecular target: T2, HMG1 B Box peptide amino acids 150-183; experiment: ELISA, HMG1 B Box peptide 150-183 coated at 10 ug/ml, antibody titrated, OD 450
T2 peptide: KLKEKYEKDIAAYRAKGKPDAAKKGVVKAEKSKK
Procedure: (§1) The plate was then blocked with 4% milk powder dissolved in PBS at 37° C. for 1 hour. The blocking solution was removed and replaced with human anti-HMG1 antibodies at various concentrations (see FIGS. 5A-B). […] HRP activity was detected with Sureblue HRP substrate (KPL). Plates were read at 450 nm using a Kinetic Microplate Reader (Molecular Devices). […] After washing and blocking with 1% BSA in PBS, the biotinylated peptides were individually added into the avidin coated wells and incubated for 30 min at room temperature. The serial diluted antibody G4, S16 and S6 at the initial concentration at 10 μg/ml were then transferred into the wells followed by adding mouse anti human IgG-HRP conjugate (Pierce). Detection was accomplished by adding 50 μl of tetramethylbenzidine (TMB) substrate (KPL) and the absorbance was read at 450 nm.

[3] = molecular target: T3, HMG1 purified from calf (bovine) thymus (bovine, UniProt P10103 2-215); experiment: direct ELISA, calf thymus HMGB1 coated at 5 ug/mL, antibody at 10 ug/mL, anti-human kappa/lambda-HRP, OD 490
T3 construct: also called Calf thymus HMGB1; thymus HMG1
T3 sequence (looked up): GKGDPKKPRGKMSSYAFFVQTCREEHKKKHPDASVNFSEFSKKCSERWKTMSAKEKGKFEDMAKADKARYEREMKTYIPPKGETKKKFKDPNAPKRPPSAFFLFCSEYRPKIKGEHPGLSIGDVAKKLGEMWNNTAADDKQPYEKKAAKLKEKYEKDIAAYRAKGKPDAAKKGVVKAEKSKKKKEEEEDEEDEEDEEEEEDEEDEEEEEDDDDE
Procedure: (§2) Binding to HMG1 vs. HMG2: Ultra high-binding ELISA plates (ThermoLab systems, #3855) were coated with either 5 ug/mL of Calf thymus HMGB1 or HMBG2 diluted in 10 mM Phosphate buffered saline (PBS), pH 7.2 and incubate overnight at 4 degrees. The plates were washed twice with Ca and Mg free PBS and 100 microliters of anti-HMGB1 antibody diluted in 10 mM PBS, pH 7.2+1% bovine serum albumin (BSA) to a final concentration of 10 ug/mL was added to each well and the plates were incubated 1 hour at room temperature. The wells were washed three times with 100 μl of PBS, pH 7.2. HRP labeled goat-anti-human IgG Kappa-chain (KPL, #14-10-10) and goat-anti-human IgG Lambda-chain (KPL, #14-10-11) were diluted in 10 mM PBS+1% BSA 1:1000 and 100 μl were added to each well and incubated for 1 hour at room temperature. The wells were then washed three times with 100 μl of PBS, pH 7.2. OPD substrate (Pierce chemical company, #34006) was prepared following the manufacturers instructions and 100 μl of prepared substrate was added to each well and the plates incubated at room temperature in the dark for 20-30 minutes. The reaction was stopped with the addition of 100 μl of 2M H₂SO₄, and the plates read on a plate reader at a wavelength of 490 nm.

[4] = molecular target: T4, HMG1 B Box peptide amino acids 91-169; experiment: ELISA, HMG1 B Box peptide 91-169 coated at 10 ug/ml, antibody titrated, OD 450
T4 construct: also called HMG1 peptide 91-169
T4 peptide: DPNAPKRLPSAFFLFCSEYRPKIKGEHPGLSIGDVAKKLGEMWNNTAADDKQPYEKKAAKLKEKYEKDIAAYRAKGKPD
Procedure: as §1

[5] = molecular target: T1, recombinant HMG1 produced in E. coli as …; experiment: cell-based or functional assay
[6] = molecular target: T5, HMG2 coated on ELISA plates (Bos taurus (Bovine), UniProt P40673 2-209); experiment: direct ELISA, HMGB2 coated at 5 ug/mL, OD 490
T5 construct: also called HMGB2; HMBG2
T5 sequence: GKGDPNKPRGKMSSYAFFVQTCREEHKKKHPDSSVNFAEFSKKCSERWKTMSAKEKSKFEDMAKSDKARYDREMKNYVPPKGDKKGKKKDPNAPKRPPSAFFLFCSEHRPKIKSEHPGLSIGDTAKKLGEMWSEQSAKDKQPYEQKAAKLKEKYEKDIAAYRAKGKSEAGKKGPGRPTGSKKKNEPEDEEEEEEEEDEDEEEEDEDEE
Procedure: as §2

[7] = molecular target: T1, recombinant HMG1 produced in E. coli as …; experiment: ELISA, coated RAGE-Fc, rHMG1 preincubated with antibody
Procedure: HMG1 binding to RAGE-Ig by ELISA: 50 μl/well of RAGE-Fc fusion protein at 5 μg/ml in PBS was added to each well of an ELISA plate and incubated overnight at 4° C. The plate was then blocked with 200 μl of 5% milk at 37° C. for 1 hr and washed 3× with PBS/Tween. 50 μl/well of diluted HMGB1 solution. For dose curves, HMGB1 concentrations started at 4 ug/ml in PBS. For antibody blocking the HMGB1 was preincubated in another plate with human anti-HMG1 antibodies or buffer, then transferred to the RAGE-coated plate. The plates were then incubated at room temperature for 2 hours and washed 3×. To detect any HMG1 bound to the immobilized RAGE-Fc a mixture of biotinylated mouse anti-HMG1 mAbs (10D4, 4H11, 3E10 and 5C12) each at 1 ug/ml, total Ab: 4 ug/ml, were added to each well and the plate was incubated for 1 hour at room temperature. The plate was then washed and Strepavidin-HPR was added to each well and incubated 15 min. The plate was then washed 3× and blotted dry. 100 μl of TMB developing agent was added and the plate read at 650 nm. Values were calculated as percent of inhibition with HMG1 alone equal to 0% inhibition. The data in FIG. 9 and summarized in Table 1 represent the average of two separate experiments.

T1 sequence (P09429 whole entry, the tested form may be a part): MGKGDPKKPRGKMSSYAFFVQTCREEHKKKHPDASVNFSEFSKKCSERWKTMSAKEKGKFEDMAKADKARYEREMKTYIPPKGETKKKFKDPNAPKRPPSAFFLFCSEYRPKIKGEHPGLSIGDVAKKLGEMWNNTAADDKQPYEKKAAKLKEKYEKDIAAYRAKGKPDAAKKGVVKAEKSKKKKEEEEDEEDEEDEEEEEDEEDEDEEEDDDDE

B1: human anti-HMG1 antibody G12 (antibody, IgG1, V domains shown)
VH: EVQLLESGGGLVQPGGSLRLSCAASGFTFSYYMMTWVRQAPGKGLEWVSSISPSGGYTIYADSAKGRFTISRDNSKNTLYLQMNSLRAEDTAVYYCARALSTGSFWDYWGQGTLVTVSS
VL: DIQMTQSPGTLSLSPGERATLSCRASESLTSTYVAWYQHKPGQAPRLLIHGGSTRATGIPVRFSGSGSGTDFTLTIATLEPEDFAVYYCQQYGSSPYTFGQGTKLEIK
notes: full length IgG1 made from a human Fab phage clone
With B1 the Kd [1] was 0.073 µM, the binding result [2] was “no binding (tested: 10 ug/ml (log 1.0))” and the binding result [3] was “binds”. The binding result [4] was “no binding (tested: 10 ug/ml (log 1.0))”, the “IC50 IL-1β” value [5] was 5.91 mg/L and the “IC50 IL-6” value [5] was 0.00112 µM. For the same binder, the “IC50 IL-12” value [5] was 2.79 mg/L, the “IC50 TNF-α” value [5] was 0.796 mg/L and the binding result [6] was “no binding (tested: 10 ug/mL (single concentration))”.

B2: human anti-HMG1 antibody G35 (antibody, IgG1, V domains shown)
VH: EVQLLESGGGLVQPGGSLRLSCAASGFTFSWYKMVWVRQAPGKGLEWVSSIVPSGGITIYADSVKGRFTISRDNSKNTLYLQMNSLRAEDTAVYYCARVQQWLGRPYFDYWGQGTLVTVSS
VL: DIQMTQSPLSLPVTPGEPASISCRSSQSLLHGNGYNYLDWYLQRPGQSPQLLIYSGSNRASGVPDRFSGSGSGTDFTLKISRVEAEDVGVYYCMQSLQSRTFGQGTKVEIK
notes: as for B1
In the case of B2, the Kd [1] is reported as 0.242 µM, the binding result [2] is reported as “no binding (tested: 10 ug/ml (log 1.0))” and the binding result [3] is reported as “binds”. For the same binder, the “IC50 IL-6” value [5] was 0.000563 µM and the binding result [6] was “no binding (tested: 10 ug/mL (single concentration))”.

B3: human anti-HMG1 antibody S14 (antibody, IgG1, V domains shown)
VH: EVQLLESGGGLVQPGGSLRLSCAASGFTFSWYETGWVRQAPGKGLEWVSGISPSGGYTQYADSVKGRFTISRDNSKNTLYLQMNSLRAEDTAVYYCARSGVGATKIFDYWGQGTLVTVSS
VL: DIQMTQSPSSLSASVGDRVTIICRANERINTYLNWYQQKPGKAPKLLISGTSSLESGVPSRFSGSGSGTEFTLSISSLQPEDFASYYCQQSYSSPYTFGQGTNLEIR
notes: as for B1
For B3, the Kd [1] was 0.205 µM, the binding result [2] was “no binding (tested: 10 ug/ml (log 1.0))” and the binding result [3] was “binds”. For the same binder, the binding result [4] was “no binding (tested: 10 ug/ml (log 1.0))”, the “IC50 IL-1β” value [5] was 0.0578 mg/L and the “IC50 IL-6” value [5] was 0.000191 µM. For the same binder, the “IC50 TNF-α” value [5] was 0.0662 mg/L and the binding result [6] was “no binding (tested: 10 ug/mL (single concentration))”.

B4: human anti-HMG1 antibody S10 (antibody, IgG1, V domains shown)
VH: EVQLLESGGGLVQPGGSLRLSCAASGFTFSWYDMWWVRQAPGKGLEWVSWIVPSGGITAYADSVKGRFTISRDNSKNTLYLQMNSLRAEDTATYYCARGNYGPSPFDYWGQGTLVTVSS
VL: DIQMTQSPGTLSLSPGERATLSCRATQSVRKNFLAWYQQKPGQAPRLLIYDASSRATGIPDRFSGSGSGTDFTLTISRLEPEDFAVYYCQQYGNSPIIFGQGTRLEIK
notes: as for B1
For B4, the “percent inhibition of HMG1 binding to RAGE” value [7] was no less than 35%, the Kd [1] was 0.054 µM and the binding result [2] was “no binding (tested: 10 ug/ml (log 1.0))”. For the same binder, the binding result [3] was “binds”, the binding result [4] was “no binding (tested: 10 ug/ml (log 1.0))” and the “IC50 IL-1β” value [5] was 2.59 mg/L. The “IC50 IL-6” value [5] was 0.000324 µM, the “IC50 IL-12” value [5] was 1.13 mg/L and the “IC50 TNF-α” value [5] was 0.875 mg/L. B4: no binding (tested: 10 ug/mL (single concentration)) [6].

B5: human anti-HMG1 antibody G9 (antibody, IgG1, V domains shown)
VH: EVQLLESGGGLVQPGGSLRLSCAASGFTFSSYDMFWVRQAPGKGLEWVSRISPSGGYTYYADSVKGRFTISRDNSKNTLYLQMNSLRAEDTAVYYCARLRYFDSRGYAFDIWGQGTMVTVSS
VL: DIQMTQSPGTLSLSPGERATLSCRASQSVRSSYLAWYQQKPGQAPRLLIYGASTRATGIPDRFSGSGSGTDFTLTISRLEPEDFAVYYCQQYGTSRWTFGQGTKVEIK
notes: as for B1
With B5 the Kd [1] was 0.125 µM, the binding result [2] was “no binding (tested: 10 ug/ml (log 1.0))” and the binding result [3] was “binds”. The binding result [4] was “no binding (tested: 10 ug/ml (log 1.0))”, the “IC50 IL-1β” value [5] was 0.211 mg/L and the “IC50 IL-6” value [5] was 0.000246 µM. The “IC50 TNF-α” value [5] was 0.248 mg/L and the binding result [6] was “no binding (tested: 10 ug/mL (single concentration))”.

B6: human anti-HMG1 antibody G20 (antibody, IgG1, V domains shown)
VH: EVQLLESGGGLVQPGGSLRLSCAASGFTFSWYDMFWVRQAPGKGLEWVSWISPSGGYTKYADSVKGRFTISRDNSKNTLYLQMNSLRAEDTAMYYCARSGLDYYDSSGYLDAFDIWGQGTMVTVSS
VL: DIQMTQSPSSVSASVGDRVTITCRASQDVSIWLAWYQQKPGKAPKLLIFGASRLQSGVPSRFSGSRSGADFTLTIDSVQPEDFASYYCQQADSFPLTFGGGTKVEIK
notes: as for B1
In the case of B6, the Kd [1] is reported as 0.114 µM, the binding result [2] is reported as “no binding (tested: 10 ug/ml (log 1.0))” and the binding result [3] is reported as “binds”. The binding result [4] was “no binding (tested: 10 ug/ml (log 1.0))”, the “IC50 IL-1β” value [5] was 0.4 mg/L and the “IC50 IL-6” value [5] was 0.000652 µM. The “IC50 NO” value [5] was 20.4 mg/L, the “IC50 TNF-α” value [5] was 0.598 mg/L and the binding result [6] was “no binding (tested: 10 ug/mL (single concentration))”.

B7: human anti-HMG1 antibody G34 (antibody, IgG1, V domains shown)
VH: EVQLLESGGGLVQPGGSLRLSCAASGFTFSHYMMGWVRQAPGKGLEWVSRISPSGGGTVYADSVKGRFTISRDNSKNTLYLQMNSLRAEDTAVYYCARGGNWNYISYYYYYLDVWGKGTTVTVSS
VL: DIQMTQSPSSLSASVGDRVAITCRASQSIDTYLNWYQQKPGKAPKLLIYAASKLEDGVPSRFSGSGTGTDFTLTIRSLQPEDFASYFCQQSYSSPGITFGPGTKVEIK
notes: as for B1
In the case of B7, the Kd [1] is reported as 0.067 µM, the binding result [2] is reported as “no binding (tested: 10 ug/ml (log 1.0))” and the binding result [3] is reported as “binds”. For the same binder, the binding result [4] was “no binding (tested: 10 ug/ml (log 1.0))”, the “IC50 IL-6” value [5] was 0.000858 µM and the binding result [6] was “no binding (tested: 10 ug/mL (single concentration))”.
